The text below walks through data of article PMC13581290, “A systematic interactome of Saccharomyces cerevisiae SET1C expands its functional landscape and identifies candidate regulatory connections” (eLife, 2026).

This assay has as its target T1, reconstituted SET1C (FLAG-Set1 and the seven other untagged subunits) (S. cerevisiae, UniProt P38827 1-1080; P39706 1-426; P36104 1-329; P38123 1-315; P43132 1-505; Q03323 …).
T1 construct: Set1, S. cerevisiae, full length (Set1 FL); Swd1, S. cerevisiae, untagged subunit; Swd2, S. cerevisiae, untagged subunit; Swd3, S. cerevisiae, untagged subunit; Bre2, S. cerevisiae, untagged subunit; Sdc1, S. cerevisiae, untagged subunit; Spp1, S. cerevisiae, untagged subunit; Shg1, S. cerevisiae, untagged subunit; The seven subunits are named in the introduction; also called full-length SET1C; …
The experiment in a line: pull-down; GST-tagged Snf2 fragments (250 nM) on glutathione-Sepharose 4B with SET1C or C762SET1C (25 nM), BSA 0.2 mg/ml; 20 mM Tris-Cl pH 7.9, 150 mM NaCl, 0.2 mM EDTA, 20% glycerol, 0.1% NP-40; 4°C, 3 hr; immunoblotting. Particulars: both partners purified. For orientation: Immunoblotting shows a protein as a band on a membrane.

B1: GST-Snf2C-AT-hook (domain or fragment, S. cerevisiae, UniProt P22082 1384-1547, looked up)
chain: ARKQRTKKEDKSEAIDGNGEIKGENIDADNDGPRINNISAEDRADTDLAMNDDDFLSKKRKAGRPRGRPKKVKLEGSENSEPPALESSPVTGDNSPSEDFMDIPKPRTAGKTSVKSARTSTRGRGRGRGRGRGRGRGRGRPPKARNGLDYVRTPAAATSPIDIR
notes: Snf2, S. cerevisiae, AT-hook region 1384-1547; also called Snf2-AT-hook; GST-Snf2-AT-hook; source: E. coli BL21, purified
For the molecule B1, the binding result is reported as “binds”.
